For experiment [1], the target named is T1, recombinant human fortilin (Strep-tag II), biotinylated (human, UniProt P13693 1-172, biotinylated (sites not given)).
T1 chain: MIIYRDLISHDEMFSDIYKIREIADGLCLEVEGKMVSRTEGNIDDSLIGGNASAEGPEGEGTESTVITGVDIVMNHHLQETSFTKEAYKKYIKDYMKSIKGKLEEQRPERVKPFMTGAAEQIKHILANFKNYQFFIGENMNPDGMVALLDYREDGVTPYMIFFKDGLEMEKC
Kind of experiment: BLI. Background: BLI is a label-free optical method that tracks binding on a fibre tip over time.

Experiment [2] concerns the target T1, recombinant human fortilin (Strep-tag …). The experiment in a line: BLI; dephosphorylated IRE1α.
The target is the same in experiment [3]. Kind of experiment: BLI; phosphorylated IRE1α.

B1: GST-IRE1α-C (aa 468-977) (domain or fragment)
chain: MHQQQQLQHQQFQKELEKIQLLQQQQQQLPFHPPGDTAQDGELLDTSGPYSESSGTSSPSTSPRASNHSLCSGSSASKAGSSPSLEQDDGDEETSVVIVGKISFCPKDVLGHGAEGTIVYRGMFDNRDVAVKRILPECFSFADREVQLLRESDEHPNVIRYFCTEKDRQFQYIAIELCAATLQEYVEQKDFAHLGLEPITLLQQTTSGLAHLHSLNIVHRDLKPHNILISMPNAHGKIKAMISDFGLCKKLAVGRHSFSRRSGVPGTEGWIAPEMLSEDCKENPTYTVDIFSAGCVFYYVISEGSHPFGKSLQRQANILLGACSLDCLHPEKHEDVIARELIEKMIAMDPQKRPSAKHVLKHPFFWSLEKQLQFFQDVSDRIEKESLDGPIVKQLERGGRAVVKMDWRENITVPLQTDLRKFRTYKGGSVRDLLRAMRNKKHHYRELPAEVRETLGSLPDDFVCYFTSRFPHLLAHTYRAMELCSHERLFQPYYFHEPPEPQPPVTPDAL
Regarding B1, the Kd (usually a measure of binding affinity in units of concentration) in experiment [1] stood at 0.67 µM.

B2: de-phosphorylated IRE1α-Myc-DDK (aa 1-977) (natural protein)
chain: IFGSTSTVTLPETLLFVSTLDGSLHAVSKRTGSIKWTLKEDPVLQVPTHVEEPAFLPDPNDGSLYTLGSKNNEGLTKLPFTIPELVQASPCRSSDGILYMGKKQDIWYVIDLLTGEKQQTLSSAFADSLCPSTSLLYLGRTEYTITMYDTKTRELRWNATYFDYAASLPEDDVDYKMSHFVSNGDGLVVTVDSESGDVLWIQNYASPVVAFYVWQREGLRKVMHINVAVETLRYLTFMSGEVGRITKWKYPFPKETEAKSKLTPTLYVGKYSTSLYASPSMVHEGVAVVPRGSTLPLLEGPQTDGVTIGDKGECVITPSTDVKFDPGLKSKNKLNYLRNYWLLIGHHETPLSASTKMLERFPNNLPKHRENVIPADSEKKSFEEVINLVDQTSENAPTTVSRDVEEKPAHAPARPEAPVDSMLKDMATIILSTFLLIGWVAFIITYPLSMHQQQQLQHQQFQKELEKIQLLQQQQQQLPFHPPGDTAQDGELLDTSGPYSESSGTSSPSTSPRASNHSLCSGSSASKAGSSPSLEQDDGDEETSVVIVGKISFCPKDVLGHGAEGTIVYRGMFDNRDVAVKRILPECFSFADREVQLLRESDEHPNVIRYFCTEKDRQFQYIAIELCAATLQEYVEQKDFAHLGLEPITLLQQTTSGLAHLHSLNIVHRDLKPHNILISMPNAHGKIKAMISDFGLCKKLAVGRHSFSRRSGVPGTEGWIAPEMLSEDCKENPTYTVDIFSAGCVFYYVISEGSHPFGKSLQRQANILLGACSLDCLHPEKHEDVIARELIEKMIAMDPQKRPSAKHVLKHPFFWSLEKQLQFFQDVSDRIEKESLDGPIVKQLERGGRAVVKMDWRENITVPLQTDLRKFRTYKGGSVRDLLRAMRNKKHHYRELPAEVRETLGSLPDDFVCYFTSRFPHLLAHTYRAMELCSHERLFQPYYFHEPPEPQPPVTPDAL
As for B2, the dissociation constant Kd in experiment [2] was determined as 1.05 µM.

B3: recombinant human phospho-IRE1α-Myc-DDK (aa 1-977) (natural protein)
chain: IFGSTSTVTLPETLLFVSTLDGSLHAVSKRTGSIKWTLKEDPVLQVPTHVEEPAFLPDPNDGSLYTLGSKNNEGLTKLPFTIPELVQASPCRSSDGILYMGKKQDIWYVIDLLTGEKQQTLSSAFADSLCPSTSLLYLGRTEYTITMYDTKTRELRWNATYFDYAASLPEDDVDYKMSHFVSNGDGLVVTVDSESGDVLWIQNYASPVVAFYVWQREGLRKVMHINVAVETLRYLTFMSGEVGRITKWKYPFPKETEAKSKLTPTLYVGKYSTSLYASPSMVHEGVAVVPRGSTLPLLEGPQTDGVTIGDKGECVITPSTDVKFDPGLKSKNKLNYLRNYWLLIGHHETPLSASTKMLERFPNNLPKHRENVIPADSEKKSFEEVINLVDQTSENAPTTVSRDVEEKPAHAPARPEAPVDSMLKDMATIILSTFLLIGWVAFIITYPLSMHQQQQLQHQQFQKELEKIQLLQQQQQQLPFHPPGDTAQDGELLDTSGPYSESSGTSSPSTSPRASNHSLCSGSSASKAGSSPSLEQDDGDEETSVVIVGKISFCPKDVLGHGAEGTIVYRGMFDNRDVAVKRILPECFSFADREVQLLRESDEHPNVIRYFCTEKDRQFQYIAIELCAATLQEYVEQKDFAHLGLEPITLLQQTTSGLAHLHSLNIVHRDLKPHNILISMPNAHGKIKAMISDFGLCKKLAVGRHSFSRRSGVPGTEGWIAPEMLSEDCKENPTYTVDIFSAGCVFYYVISEGSHPFGKSLQRQANILLGACSLDCLHPEKHEDVIARELIEKMIAMDPQKRPSAKHVLKHPFFWSLEKQLQFFQDVSDRIEKESLDGPIVKQLERGGRAVVKMDWRENITVPLQTDLRKFRTYKGGSVRDLLRAMRNKKHHYRELPAEVRETLGSLPDDFVCYFTSRFPHLLAHTYRAMELCSHERLFQPYYFHEPPEPQPPVTPDAL
modifications: phosphorylated (sites not stated for this preparation)
Regarding B3, in experiment [3], the Kd came to 0.32 µM.

B4: GST-IRE1α-TM (aa 401-500) (domain or fragment)
chain: EEVINLVDQTSENAPTTVSRDVEEKPAHAPARPEAPVDSMLKDMATIILSTFLLIGWVAFIITYPLSMHQQQQLQHQQFQKELEKIQLLQQQQQQLPFHP
For B4, the Kd in experiment [1] worked out at 4190 µM.

The values above are taken from publication PMC5446404 (2017).
